Paper PMC5662892

System: ORC-Qdot705 (Orc1-6) (budding yeast)
Assay: single-molecule TIRFM
Settings: RPA: 20 mM Tris pH 7.5, 50 mM NaCl, 2 mM EDTA, 0.2 mg/ml BSA, ORC: 25 mM HEPES pH 7.6, 12 mM MgOAc, 50 uM ZnOAc, 1 mM DTT, 225 mM KGlut, 3 mM ATP

lambda-ARS1 gave a binding signal (% of binding positions at ARS1 site) of 12.8.
